From US20220064279A1 (AstraZeneca / MedImmune, published 2022)

Molecular target: endogenous LIF of U-251 glioma cells (human, UniProt P15018 23-202)
Experiment: cell-based or functional assay

Chain of endogenous LIF of U-251 glioma cells (P15018 23-202 limits assumed): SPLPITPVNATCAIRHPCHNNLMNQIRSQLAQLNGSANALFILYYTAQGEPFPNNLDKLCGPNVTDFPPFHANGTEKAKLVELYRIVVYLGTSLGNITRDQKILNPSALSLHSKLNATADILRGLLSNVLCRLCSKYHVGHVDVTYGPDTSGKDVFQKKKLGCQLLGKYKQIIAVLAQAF

- IC50 for biological inhibition (pSTAT3, MSD assay, serum starved U-251 cells): 490 picomolar
B1: h5D8 (humanized 5D8, H2L2) (antibody, V domains shown)
VH: QVQLQESGGGLVKPGGSLRLSCAASGFTFSHAWMHWVRQAPGKGLEWVGQIKAKSDDYATYYAESVKGRFTISRDDSKNTLYLQMNSLKTEDTAVYYCTCWEWDLDFWGQGTMVTVSS
VL: DIVMTQTPLSSPVTLGQPASISCRSSQSLLDSDGHTYLNWLQQRPGQPPRLLIYSVSNLESGVPDRFSGSGAGTDFTLKISRVEAEDVGVYYCMQATHAPPYTFGQGTKLEIK
